The values below come from patent US20160024210A1 (AstraZeneca / MedImmune, published 2016).

Assay [1] deals with T1, human H7CR (B7-H7 counter-receptor) (human, UniProt Q96BF3 23-282).
T1 construct: Used for H7CR on CHO.hH7CR transfectants, human T cells and tonsil tissue; also called B7-H7CR; CD28H
T1 sequence: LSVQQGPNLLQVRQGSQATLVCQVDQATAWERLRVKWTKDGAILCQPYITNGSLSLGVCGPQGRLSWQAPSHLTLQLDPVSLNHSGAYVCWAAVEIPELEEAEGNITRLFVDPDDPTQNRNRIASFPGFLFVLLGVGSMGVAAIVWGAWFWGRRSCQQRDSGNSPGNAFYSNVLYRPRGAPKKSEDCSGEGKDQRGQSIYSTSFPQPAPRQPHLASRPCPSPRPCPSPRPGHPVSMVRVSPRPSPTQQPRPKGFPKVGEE
Description: binding to human H7CR as endogenously expressed on the surface of a cell.

The target of assay [2] is T2, H7CR-GFP fusion protein on transfected CHO cells (Homo sapiens (Human), UniProt Q96BF3 23-282).
T2 construct: not shown: GFP part
T2 sequence: T1 sequence
Nature of the assay: flow cytometry, 5 µg/ml variant on H7CR-GFP transfected CHO cells, anti-hIg PE secondary antibody [row HC2-2, column LC1-2]. As for the experimental part:
(§1) 5 μg/ml antibodies from thirty-six variants were incubated with H7CR-GFP fusion protein transfected CHO cells for 30 min at room temperature. Cells were then washed twice with 2 ml flow cytometry buffer, and resuspended in 100 μl flow cytometry buffer. 1 μl anti-hIg PE secondary antibody (Biolegend) was added and incubated with the cells for 15 mins Samples were then washed and resuspended in 100 μl flow cytometry buffer. Flow Cytometry data was acquired using BD Canto (BD Biosciences) in plate format and analyzed by FlowJo software.
For orientation: Flow cytometry measures light scatter and fluorescence of single cells or particles in a stream.

The target in assay [3] is T2, H7CR-GFP fusion protein on transfected …. Nature of the assay: flow cytometry, 5 µg/ml variant on H7CR-GFP transfected CHO cells, anti-hIg PE secondary antibody [row HC2-3, column LC1-2]. How it is done:
as §1

Assay [4] has the same target. Description: flow cytometry, 5 µg/ml variant on H7CR-GFP transfected CHO cells, anti-hIg PE secondary antibody [row HC2-1, column LC1-3]. How it is done: as §1
Assay [5] shares this target. Description: flow cytometry, 5 µg/ml variant on H7CR-GFP transfected CHO cells, anti-hIg PE secondary antibody [row HC2-3, column LC1-1]. How it is done:
as §1

Assay [6] shares this target. Nature of the assay: flow cytometry, 5 µg/ml variant on H7CR-GFP transfected CHO cells, anti-hIg PE secondary antibody [row HC2-1, column LC1-2]. How it is done: as §1
Assay [7] has the same target. Nature of the assay: flow cytometry, 5 µg/ml variant on H7CR-GFP transfected CHO cells, anti-hIg PE secondary antibody [row HC2-2, column LC1-3]. As for the experimental part:
as §1

The target is the same in assay [8]. Nature of the assay: flow cytometry, 5 µg/ml variant on H7CR-GFP transfected CHO cells, anti-hIg PE secondary antibody [row HC2-3, column LC1-3]. As for the experimental part: as §1
The target is the same in assay [9]. Description: flow cytometry, 5 µg/ml variant on H7CR-GFP transfected CHO cells, anti-hIg PE secondary antibody [row HC2-1, column LC1-1]. How it is done: as §1
Assay [10] has the same target. Description: flow cytometry, 5 µg/ml variant on H7CR-GFP transfected CHO cells, anti-hIg PE secondary antibody [row HC2-2, column LC1-1]. How it is done: as §1
Assay [11] shares this target. Nature of the assay: flow cytometry, 5 µg/ml variant on H7CR-GFP transfected CHO cells, anti-hIg PE secondary antibody [row HC1-3, column LC2-3]. As for the experimental part: as §1
Assay [12] has the same target. Nature of the assay: flow cytometry, 5 µg/ml variant on H7CR-GFP transfected CHO cells, anti-hIg PE secondary antibody [row HC2-1, column LC2-1]. As for the experimental part: as §1
For assay [13] the target is unchanged. Description: flow cytometry, 5 µg/ml variant on H7CR-GFP transfected CHO cells, anti-hIg PE secondary antibody [row HC2-2, column LC2-2]. As for the experimental part: as §1
For assay [14] the target is unchanged. Description: flow cytometry, 5 µg/ml variant on H7CR-GFP transfected CHO cells, anti-hIg PE secondary antibody [row HC2-2, column LC2-3]. How it is done: as §1
Assay [15] has the same target. Nature of the assay: flow cytometry, 5 µg/ml variant on H7CR-GFP transfected CHO cells, anti-hIg PE secondary antibody [row HC2-1, column LC2-3]. As for the experimental part:
as §1

The target is the same in assay [16]. Nature of the assay: flow cytometry, 5 µg/ml variant on H7CR-GFP transfected CHO cells, anti-hIg PE secondary antibody [row HC2-1, column LC2-2]. As for the experimental part: as §1
Assay [17] has the same target. Description: flow cytometry, 5 µg/ml variant on H7CR-GFP transfected CHO cells, anti-hIg PE secondary antibody [row HC2-2, column LC2-1]. As for the experimental part: as §1

Substitutions are numbered along the chain they refer to.

B1: 4.5 humanized variant 26 (HC2-2 / LC1-2) (antibody, V domains shown)
VH: QITLKESGPTLVKPTQTLTLTCTVSGFSITTGGYYWNWIRQPPGKKLEWLALIYTSGRTSYNPSLKSRLTITKDTSKNQVVLTMTNMDPVDTATYYCADMADKGGWFAYWGQGTLVTVSS
VL: DIVMTQSPDSLAVSLGERATINCKSSQSLFSSNTKRNYLNWYQQKPGQPPKLLIYHASTRLSGVPDRFSGSGSGTDFTLTISSLQAEDVADYFCQQHYETPLTFGDGTRLEIK
notes: Variable domains only; detected with anti-hIg secondary; also called VH2B / VL1B
In the case of B1, the binding result in [1] and in assay [2] was “binds” in each case.

B2: 4.5 humanized variant 32 (HC2-3 / LC1-2) (antibody, V domains shown)
VH: B1 VH with T3Q, L50M
VL: B1 VL
notes: Variable domains only; detected with anti-hIg secondary; also called VH2C / VL1B
For B2, the binding result in assay [1] and in [3] was “binds” each time.

B3: 4.5 humanized variant 21 (HC2-1 / LC1-3) (antibody, V domains shown)
VH: B1 VH with V24F, W36V, N37G, K46A, S60R, N62S
VL: B1 VL with K24L, P49S
notes: Variable domains only; detected with anti-hIg secondary; also called VH2A / VL1C
On to B3, for which the binding result in assay [1] and in [4] was “binds” in each case.

B4: 4.5 humanized variant 31 (HC2-3 / LC1-1) (antibody, V domains shown)
VH: B1 VH with T3Q, L50M
VL: B1 VL with N40A, L61E, D91V, F93Y, D106Q
notes: Variable domains only; detected with anti-hIg secondary; also called VH2C / VL1A
On to B4, for which the binding result in [1] and in assay [5] was “binds” each time.

B5: 4.5 humanized variant 20 (HC2-1 / LC1-2) (antibody, V domains shown)
VH: B1 VH with V24F, W36V, N37G, K46A, S60R, N62S
VL: B1 VL
notes: Variable domains only; detected with anti-hIg secondary; also called VH2A / VL1B
In the case of B5, the binding result in [1] and in assay [6] was “binds” in each case.

B6: 4.5 humanized variant 27 (HC2-2 / LC1-3) (antibody, V domains shown)
VH: B1 VH
VL: B1 VL with K24L, P49S
notes: Variable domains only; detected with anti-hIg secondary; also called VH2B / VL1C
For the molecule B6, the binding result in assay [1] and in assay [7] was “binds” in each case.

B7: 4.5 humanized variant 33 (HC2-3 / LC1-3) (antibody, V domains shown)
VH: B1 VH with T3Q, L50M
VL: B1 VL with K24L, P49S
notes: Variable domains only; detected with anti-hIg secondary; also called VH2C / VL1C
B7: the binding result in [1] and in assay [8] was “binds” each time.

B8: 4.5 humanized variant 19 (HC2-1 / LC1-1) (antibody, V domains shown)
VH: B1 VH with V24F, W36V, N37G, K46A, S60R, N62S
VL: B1 VL with N40A, L61E, D91V, F93Y, D106Q
notes: Variable domains only; detected with anti-hIg secondary; also called VH2A / VL1A
As to B8, the binding result in assay [1] and in [9] was “binds” each time.

B9: 4.5 humanized variant 25 (HC2-2 / LC1-1) (antibody, V domains shown)
VH: B1 VH
VL: B1 VL with N40A, L61E, D91V, F93Y, D106Q
notes: Variable domains only; detected with anti-hIg secondary; also called VH2B / VL1A
With B9, the binding result in assay [1] and in assay [10] was “binds” in each case.

B10: 4.5 humanized variant 18 (HC1-3 / LC2-3) (antibody, V domains shown)
VH: QVQLQESGPGLVKPSQTLSLTCTVSGFSITTGGYYWNWIRQFPGKKLEWMGYIYTSGRTSYNPSLKSRVTISRDTSKNQFSLKLSSVTAADTAVYYCADMADKGGWFAYWGQGTLVTVSS
VL: DIVMTQTPSSLPVTPGEPASISCLSSQSLFSSNTKRNYLNWYLQKPGQSPKLLIYHASTRLSGVPDRFSGSGSGTDFTLKISRVEAEDVGDYFCQQHYETPLTFGDGTRLEIK
notes: Variable domains only; detected with anti-hIg secondary; also called VH1C / VL2C
For B10, the binding result in [1] and in [11] was “binds” each time.

B11: 4.5 humanized variant 22 (HC2-1 / LC2-1) (antibody, V domains shown)
VH: B1 VH with V24F, W36V, N37G, K46A, S60R, N62S
VL: B10 VL with S9L, L24R, N40D, K51Q, T59Y, L61A, D91V, F93Y, D106Q
notes: Variable domains only; detected with anti-hIg secondary; also called VH2A / VL2A
Take B11: the binding result in assay [1] and in [12] was “binds” in each case.

B12: 4.5 humanized variant 29 (HC2-2 / LC2-2) (antibody, V domains shown)
VH: B1 VH
VL: B10 VL with S9L, L24R
notes: Variable domains only; detected with anti-hIg secondary; also called VH2B / VL2B
As for B12, the binding result in assay [1] and in assay [13] was “binds” each time.

B13: 4.5 humanized variant 30 (HC2-2 / LC2-3) (antibody, V domains shown)
VH: B1 VH
VL: B10 VL
notes: Variable domains only; detected with anti-hIg secondary; also called VH2B / VL2C
As to B13, the binding result in [1] and in [14] was “binds” each time.

B14: 4.5 humanized variant 24 (HC2-1 / LC2-3) (antibody, V domains shown)
VH: B1 VH with V24F, W36V, N37G, K46A, S60R, N62S
VL: B10 VL
notes: Variable domains only; detected with anti-hIg secondary; also called VH2A / VL2C
Turning to B14, the binding result in assay [1] and in assay [15] was “binds” in each case.

B15: 4.5 humanized variant 23 (HC2-1 / LC2-2) (antibody, V domains shown)
VH: B1 VH with V24F, W36V, N37G, K46A, S60R, N62S
VL: B10 VL with S9L, L24R
notes: Variable domains only; detected with anti-hIg secondary; also called VH2A / VL2B
In the case of B15, the binding result in assay [1] and in [16] was “binds” throughout.

B16: 4.5 humanized variant 28 (HC2-2 / LC2-1) (antibody, V domains shown)
VH: B1 VH
VL: B10 VL with S9L, L24R, N40D, K51Q, T59Y, L61A, D91V, F93Y, D106Q
notes: Variable domains only; detected with anti-hIg secondary; also called VH2B / VL2A
In the case of B16, the binding result in assay [1] and in assay [17] was “binds” throughout.
